Laboratory results reported in patent US20260008815A1, “CYCLIC PEPTIDE OR SALT THEREOF, AND USES THEREOF” (FUJIFILM Corporation, priority 2023, published 2026).
Numbered stars: 1 amine (or outer) side, 2 acyl side, 3 side chain; on linkers, the order of the positions; unused ones are H or OH. Bridge positions count the residues as written; N and C are the ends. Ends that are not written are not given here. acetyl = acetyl (haloacetyl before ring closure) on the side-chain amine, O=C(C[*:1])[*:2]; COCH2 = acetyl group that carries the bridge

These substances were tested against T1, Recombinant Human FGFR2 alpha (IIIc) Fc Chimera Protein (Homo sapiens, UniProt P21802) (assay: ELISA binding affinity of enzymatically synthesized peptide to FGFR). Conditions: ELISA luminescence signal at 10 nmol/L peptide, SEQ ID NO: 47 at 10 nmol/L standardized to 1; enzyme synthesis product.
T1 construct: Fc (chimera); purchased R&D systems 712-FR-050
T1 sequence (P21802 with tags, fused parts or gaps limits assumed): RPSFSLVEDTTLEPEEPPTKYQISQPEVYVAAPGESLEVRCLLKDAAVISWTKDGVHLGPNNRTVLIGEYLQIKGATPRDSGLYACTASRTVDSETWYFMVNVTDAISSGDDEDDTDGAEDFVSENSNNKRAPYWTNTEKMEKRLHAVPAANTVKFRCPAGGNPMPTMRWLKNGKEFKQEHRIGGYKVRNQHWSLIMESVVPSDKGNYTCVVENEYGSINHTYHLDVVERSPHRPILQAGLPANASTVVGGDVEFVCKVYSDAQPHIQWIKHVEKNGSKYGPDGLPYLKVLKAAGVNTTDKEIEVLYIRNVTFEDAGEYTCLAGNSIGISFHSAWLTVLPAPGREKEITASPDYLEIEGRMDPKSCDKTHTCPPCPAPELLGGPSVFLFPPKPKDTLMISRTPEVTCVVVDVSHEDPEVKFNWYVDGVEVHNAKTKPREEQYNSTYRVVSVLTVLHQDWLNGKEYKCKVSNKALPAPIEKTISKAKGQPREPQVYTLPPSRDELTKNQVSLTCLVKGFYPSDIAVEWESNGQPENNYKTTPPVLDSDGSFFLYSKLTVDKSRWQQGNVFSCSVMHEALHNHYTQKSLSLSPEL
Procedure, shortened: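 FGFR2 alpha (IIIc) Fc chimera (5 ng/well) was immobilized, and Myc-tagged peptide was bound 3 h at room temperature, then detected with anti-Myc antibody (2 h) and chemiluminescent substrate. Signal was corrected against FGFR-free wells. Score A–D was the luminescence at 10 nmol/L peptide, normalized to cyclic peptide SEQ ID NO: 47.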

Row | Evaluation result of binding affinity to FGFR | Substance
1 | C (0.1 or more and less than 0.5) | 101 (QCPQNFINPVQIRYFQHYK(COCH2)N; thioether 2-19 (inferred)) [compound 101]
2 | C (0.1 or more and less than 0.5) | 384 (QCQLYYLYQYTIAIK(COCH2)T; thioether 2-15 (inferred)) [compound 384]
3 | A (0.7 or more) | 126 (LCEINWLSQEQYGYFIEYK(COCH2)T; thioether 2-19 (inferred)) [compound 126]
4 | A (0.7 or more) | 345 (YCEENYLDPEQYQYFIKFK(COCH2)Y; thioether 2-19) [compound 345]
5 | A (0.7 or more) | 165 (YCHENYLDPEQYQYFIYFK(COCH2)Y; thioether 2-19 (inferred)) [compound 165]
6 | C (0.1 or more and less than 0.5) | 251 (YCEENYLDPEHYQYFIYFK(COCH2)Y; thioether 2-19 (inferred)) [compound 251]
7 | A (0.7 or more) | 129 (ECPWNFVNQLQWQYFITYK(COCH2)V; thioether 2-19 (inferred)) [compound 129]
8 | A (0.7 or more) | 324 (YCEANYLDPEQYQYFIYFK(COCH2)Y; thioether 2-19 (inferred)) [compound 324]
9 | C (0.1 or more and less than 0.5) | 416 (LCTQFPASQRYYFALYRLWHKS; Description of Artificial Sequence: Cyclic peptide) [compound 416]
10 | A (0.7 or more) | 158 (YCWENYLDPEQYQYFIYFK(COCH2)Y; thioether 2-19 (inferred)) [compound 158]
11 | A (0.7 or more) | 287 (YCEENYLDPEQYQYFDYFK(COCH2)Y; thioether 2-19) [compound 287]
12 | C (0.1 or more and less than 0.5) | 97 (QCPQSFINPVQWRYFQHYK(COCH2)N; thioether 2-19) [compound 97]
13 | A (0.7 or more) | 84 (ECPQNFINPVQWRYFQHYK(COCH2)N; thioether 2-19 (inferred)) [compound 84]
14 | C (0.1 or more and less than 0.5) | 56 (KCPQAFINPVQWRYFQHYK(COCH2)N; thioether 2-19 (inferred)) [compound 56]
15 | A (0.7 or more) | 266 (YCEENYLDPEQYTYFIYFK(COCH2)Y; thioether 2-19) [compound 266]
16 | A (0.7 or more) | 170 (YCEVNYLDPEQYQYFIYFK(COCH2)Y; thioether 2-19 (inferred)) [compound 170]
17 | C (0.1 or more and less than 0.5) | 271 (YCEENYLDPEQYQIFIYFK(COCH2)Y; thioether 2-19) [compound 271]
18 | A (0.7 or more) | 167 (YCEPNYLDPEQYQYFIYFK(COCH2)Y; thioether 2-19 (inferred)) [compound 167]
19 | A (0.7 or more) | 136 (GCEENYLDPEQYQYFIYFK(COCH2)Y; thioether 2-19 (inferred)) [compound 136]
20 | A (0.7 or more) | 114 (YCTDNYIDDIQFWYLFLYK(COCH2)H; thioether 2-19 (inferred)) [compound 114]
21 | C (0.1 or more and less than 0.5) | 390 (YCEENYLDPEQYQYFHYFK(COCH2)R; thioether 2-19 (inferred)) [compound 390]
22 | A (0.7 or more) | 350 (YCEENMLDPEQYQYFIYFK(COCH2)Y; thioether 2-19) [compound 350]

Row | Evaluation result of binding affinity to FGFR | Substance
23 | A (0.7 or more) | 411 (TCVDKDNWYNHVQWQYFFLYK(COCH2)Q; thioether 2-21 (inferred)) [compound 411]
24 | C (0.1 or more and less than 0.5) | 98 (QCPQTFINPVQWRYFQHYK(COCH2)N; thioether 2-19) [compound 98]
25 | C (0.1 or more and less than 0.5) | 365 (LCYLYQYLYQAK(COCH2)F; thioether 2-12) [compound 365]
26 | A (0.7 or more) | 245 (YCEENYLDPQQYQYFIYFK(COCH2)Y; thioether 2-19 (inferred)) [compound 245]
27 | C (0.1 or more and less than 0.5) | 389 (RCHHNFHHARQHGFFWHYK(COCH2)R; thioether 2-19 (inferred)) [compound 389]
28 | A (0.7 or more) | 82 (TCPQNFINPVQWRYFQHYK(COCH2)N; thioether 2-19 (inferred)) [compound 82]
29 | A (0.7 or more) | 121 (DCYWDDQQYSFLQLYK(COCH2)R; thioether 2-16 (inferred)) [compound 121]
30 | C (0.1 or more and less than 0.5) | 421 (VCLDEQQALFHQYYRITRRK(COCH2)V; thioether 2-20 via acetyl) [compound 421]
31 | C (0.1 or more and less than 0.5) | 69 (KCPQNFINPVQWRYFQHYAKN; not fully specified; also: cyclic peptide, ring places not shown) [compound 69]
32 | C (0.1 or more and less than 0.5) | 134 (LCADQYDYLLQYVFWRTYK(COCH2)I; thioether 2-19 (inferred)) [compound 134]
33 | A (0.7 or more) | 137 (PCEENYLDPEQYQYFIYFK(COCH2)Y; thioether 2-19 (inferred)) [compound 137]
34 | A (0.7 or more) | 83 (DCPQNFINPVQWRYFQHYK(COCH2)N; thioether 2-19 (inferred)) [compound 83]
35 | A (0.7 or more) | 337 (YCEKNYLDPEQYQYFIYFK(COCH2)Y; thioether 2-19 (inferred)) [compound 337]
36 | C (0.1 or more and less than 0.5) | 102 (QCPQNFINPVQVRYFQHYK(COCH2)N; thioether 2-19 (inferred)) [compound 102]
37 | A (0.7 or more) | 260 (YCEENYLDPEQYVYFIYFK(COCH2)Y; thioether 2-19) [compound 260]
38 | C (0.1 or more and less than 0.5) | 364 (QCLQYLYQYLFK(COCH2)I; thioether 2-12) [compound 364]
39 | A (0.7 or more) | 75 (VCPQNFINPVQWRYFQHYK(COCH2)N; thioether 2-19 (inferred)) [compound 75]
40 | A (0.7 or more) | 231 (YCEENYLDTEQYQYFIYFK(COCH2)Y; thioether 2-19 (inferred)) [compound 231]
41 | C (0.1 or more and less than 0.5) | 90 (QCPQNFINPVQWRYRQHYK(COCH2)N; thioether 2-19 (inferred)) [compound 90]
42 | A (0.7 or more) | 244 (YCEENYLDPNQYQYFIYFK(COCH2)Y; thioether 2-19 (inferred)) [compound 244]
43 | A (0.7 or more) | 351 (YCEENYMDPEQYQYFIYFK(COCH2)Y; thioether 2-19) [compound 351]
44 | A (0.7 or more) | 243 (YCEENYLDPWQYQYFIYFK(COCH2)Y; thioether 2-19 (inferred)) [compound 243]
